Reference: article PMC3718800, “Structural and Functional Perturbation of Giardia lamblia Triosephosphate Isomerase by Modification of a Non-Catalytic, Non-Conserved Region” (PLoS ONE, 2013)

Substrate: O=C[C@H](O)COP(=O)(O)O
Test: Coupled alpha-glycerol-3-phosphate dehydrogenase assay following NADH decrease at 340 nm at 25°C in 100 mM triethanolamine/10 mM EDTA, pH 7.4, with 0.2 mM NADH and GAP varied from 0.3 to 3 mM, fitted to the Michaelis-Menten equation by non-linear regression.
Type: biochemical
Protocol: Glyceraldehyde 3-phosphate (GAP), buffers, salts and all the other analytical grade reagents were acquired from Sigma–Aldrich; α-glycerol-3-phosphate dehydrogenase (α-GDH) was from Roche, crystallization screen kits were obtained from Hampton Research. Restriction enzymes, DNA polymerase and T4 DNA ligase were purchased from New England BioLabs and Invitrogene. Oligonucleotide synthesis and DNA sequencing was performed at the Unidad de Biología Molecular, Instituto de Fisiología Celular, UNAM. Protein concentration was determined by the bicinchoninic acid method or by absorbance at 280 nm for pure GlTIM (ε280 = 26600 M^-1cm^-1). The TIM activity was determined at 25°C by a coupled assay, following the decrease in absorbance at 340 nm. The standard reaction mixture contained 100 mM triethanolamine/10 mM EDTA, pH 7.4 (TE buffer), 1 mM GAP, 0.2 mM NADH, and 0.9 units of α-GDH (20 μg/mL); the reaction was initiated by addition of 5 ng/mL of WT, C222V or C222M GlTIM, 10 ng/mL of C222N, 20 ng/mL of C222D or C222F, and 200 ng/mL of C222K. Kinetic, binding and stability data were analyzed by non-linear regression calculations with Origin software.
Determination of Km and Vmax was performed by fitting initial velocity data at GAP concentrations ranging from 0.3 to 3 mM to the Michaelis-Menten equation (v = Vmax•S/Km+S) by non-linear regression calculations. The kcat was derived from Vmax by considering a molecular mass for the monomer of 27.7 kDa. The Ki for 2-phosphoglycolate (2-PG) was calculated by global fit of initial velocity curves (GAP from 0.3 to 3 mM) obtained at different fixed concentrations of the inhibitor. Prior to fitting collectively the data to the simple competitive inhibition equation (v = Vmax•S/Km(1+I/Ki)+S), individual data were plotted as double reciprocal plots to confirm competitive inhibition.

B1: GlTIM (Giardia duodenalis) (protein)
chain: MPARRPFIGGNFKCNGSLDFIKSHVAAIAAHKIPDSVDVVIAPSAVHLSTAIAANTSKQLRIAAQNVYLEGNGAWTGETSVEMLQDMGLKHVIVGHSERRRIMGETDEQSAKKAKRALEKGMTVIFCVGETLDERKANRTMEVNIAQLEALGKELGESKMLWKEVVIAYEPVWSIGTGVVATPEQAEEVHVGLRKWFAEKVCAEGAQHIRIIYGGSANGSNCEKLGQCPNIDGFLVGGASLKPEFMTMIDILTKTRT
B1 showed a Km of 620 ± 220 µM, a Vmax of 8050 µmol/min/mg and a kcat of 7330 s⁻¹.
